The values below come from publication PMC4190031 (Cell, 2014).

This test concerns the target T1, MitTx β subunit (Texas coral snake, UniProt G9I930 31-149).
T1 sequence: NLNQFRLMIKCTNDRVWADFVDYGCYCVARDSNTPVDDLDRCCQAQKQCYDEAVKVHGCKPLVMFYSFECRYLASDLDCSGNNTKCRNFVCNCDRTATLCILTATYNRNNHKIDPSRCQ
As to the kind of experiment: crystal structure.

Square brackets hold non-standard residues; d marks the D form. Ends that are not written are not given here.

B1: MitTx α subunit (natural protein)
chain: [PCA]IRPAFCYEDPPFFQKCGAFVDSYYFNRSRITCVHFFYGQCDVNQNHFTTMSECNRVCHG
modifications: cysteine pairing not given here
Take B1: the binding result was “binds”.
